# Source: patent US11680267B2, “Co-regulatory sequences based on tetracycline and Cumate” (Shenzhen Eureka Biotechnology Co., Ltd., priority 2020, dated 2023)
# Test system: 293T(T&C)-TRE3GCuO-Luc cells and 293T(T&C)-TRE3GCuO-BGI-Luc cells
# Assay: Luciferase assay in stable cell lines under different combinations of DOX and Cumate (Example 5)
# Type: cell-based
# Conditions: for induced transcription activity: 24 hours, stable cell line
# Excerpt: In this Example, stable cell lines, under complex regulation of Tet-ON and Cumate, TRE3GCuO or TRE3GCuO-intron, and with Luciferase as the reporter gene, were constructed. Then, based on these cell lines, induced transcription activities of the reporter gene under the following 4 induction conditions were detected: without inducer, Cumate only, DOX only or both DOX and Cumate inducers. In this Example, the Luciferase reporter gene was taken as an example, and in principle, the method of the present disclosure was not affected by the nucleic acid fragment of interest. The specific experimental methods were as follows:
# 293T cells were seeded at 1.5E+06 cells per 60 mm culture dish, and cultured in DMEM (Sigam, D6429) complete medium supplemented with 10% FBS (ExCell, 11H116) at 37° C. and 5% CO 2. After 24 hours of culture, transfection was carried out according to the PEI method. During transfection, 500 μL of transfection reagent which contained 5.5 ug of total plasmid was added to each 60 mm culture dish, and the mass ratio of total plasmid to PEI MAX (Polysciences, 24765-1) was 1:4; and thereby 3 Luciferase stable cell lines were constructed. The transfection plasmids were transfected at the 19BF075:19BF229:18BF019 molar ratio of 5:5:1 to obtain 293T(T&C)-CMV-BGI-Luc cells; the transfection plasmids were transfected at the 19BF075:19BF235:18BF019 molar ratio of 5:5:1 to obtain 293T(T&C)-TRE3GCuO-Luc cells; the transfection plasmids were transfected at the 19BF075:19BF237:18BF019 molar ratio of 5:5:1 to obtain 293T(T&C)-TRE3GCuO-BGI-Luc cells. The plasmid and PEI MAX were mixed uniformly, and then put into a culture dish after standing for 15 minutes. 3 hours after transfection, the medium was changed to a complete DMEM medium, and the transfection operation was completed. After 24 hours of transfection, the cells were digested with trypsin and all seeded in a 100 mm culture dish (Corning, 430167), and 200 μg/ml of hygromycin (Sangon Biotech A600230-0001) drug screening was performed for at least three passages. After the growth of cells under the pressure of drug screening was consistent with that of the original 293T cells, the above 3 cells were diluted to 1 cell per well by a limiting dilution method and seeded in a 96-well plate; when the cells grew to about 50% of the bottom area of the well, the wells with strong EGFP green fluorescence intensity and uniform luminescence were selected under the fluorescence microscope, and 3 independent clones of each cell were selected for the following experiments.
# For the above 3 cells, 3 independent clones for each cell were seeded into a 96-well plate (Corning 3916) at 2.5E+04 cells per well, with 8 wells per clone, and the medium was 100 microliters of DMEM complete medium. After 24 hours of culture, the medium was replaced and the following reagents were added into the duplicate wells of the 8 wells for each cell: (1) the same amount of medium, (2) Cumate at a final concentration of 200 ug/ml, (3) DOX at a final concentration of 1 ug/ml, or (4) DOX at a final concentration of 1 ug/ml and Cumate at a final concentration of 200 ug/ml. After 24 hours of further culture, relative light unit RLU of each well was detected using a Steady-Glo® Luciferase Assay System (Promega, E2610) kit according to the instruction (Promega, FB037), wherein the detection instrument was a fluorescence microplate reader (Perkin Elmer Victor V).
molecule,measurement,setting,value
"TRE3GCuO: Tet-On (7xTetO of TRE3G) and Cumate complex response element, CuO 50 bp behind the TATA box (SEQ ID NO: 23) (nucleic acid, TRE3GCuO50 response element sequence) DNA: TCCCTATCAGTGATAGAGAACGTATGAAGAGTTTACTCCCTATCAGTGATAGAGAACGTATGCAGACTTTACTCCCTATCAGTGATAGAGAACGTATAAGGAGTTTACTCCCTATCAGTGATAGAGAACGTATGACCAGTTTACTCCCTATCAGTGATAGAGAACGTATCTACAGTTTACTCCCTATCAGTGATAGAGAACGTATATCCAGTTTACTCCCTATCAGTGATAGAGAACGTATTAGGCGTGTACGGTGGGCGCCTATAAAAGCAGAGCTCGTTTAGTGAACCGTCAGATCGCCTGGAGCAATTCCACATACAAACAGACCAGATTGTCTGTTTGTT",induced transcription activity,adding both DOX 1 ug/ml and Cumate 200 ug/ml,7.54E+06 RLU
same,induced transcription activity relative to no induction,adding both DOX and Cumate,2381.05 times
same,induced transcription activity relative to only adding Cumate,adding both DOX and Cumate,552.99 times
same,induced transcription activity relative to only adding DOX,adding both DOX and Cumate,35.19 times
same,maximum induced transcription activity as % of that of CMV promoter,both DOX and Cumate inducers added,47.84%
same,induced transcription activity relative to no induction,only adding Cumate,4.31 times
same,induced transcription activity,only adding Cumate 200 ug/ml,1.36E+04 RLU
same,induced transcription activity relative to no induction,only adding DOX,67.66 times
same,induced transcription activity relative to only adding Cumate,only adding DOX,15.71 times
same,induced transcription activity,only adding DOX 1 ug/ml,2.14E+05 RLU
